The text below walks through data of US20150284471A1 (Amgen, published 2015).

Numbering of substitutions follows the chain as printed. Names may count otherwise.

The chains are these.
T1: full-length wild type recombinant human LCAT (human, UniProt P04180 25-440)
T1 construct: also called huLCAT; hLCAT
T1 sequence: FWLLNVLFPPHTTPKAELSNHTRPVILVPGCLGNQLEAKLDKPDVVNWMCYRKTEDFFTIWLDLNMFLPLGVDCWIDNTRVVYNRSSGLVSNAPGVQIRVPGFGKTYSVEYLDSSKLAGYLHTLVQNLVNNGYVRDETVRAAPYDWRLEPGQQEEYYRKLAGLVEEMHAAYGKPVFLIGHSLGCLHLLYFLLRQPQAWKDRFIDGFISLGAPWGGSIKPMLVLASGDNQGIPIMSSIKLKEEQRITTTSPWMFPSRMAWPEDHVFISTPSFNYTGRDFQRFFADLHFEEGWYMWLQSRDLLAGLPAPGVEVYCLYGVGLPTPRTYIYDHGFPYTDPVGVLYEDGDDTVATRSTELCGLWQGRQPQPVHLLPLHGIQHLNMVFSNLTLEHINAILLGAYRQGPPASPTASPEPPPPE

T2: full-length wild type recombinant cynomolgus LCAT (cynomolgus monkey, UniProt Q08758 25-440 (Papio anubis entry))
T2 construct: also called cyno LCAT
T2 chain: T1 sequence with R158H, G338D, H373R, L385Q

T3: full-length wild type recombinant human LCAT protein that carries a His and Flag tag at the C-terminus (human, UniProt P04180 25-440)
T3 sequence: T1 sequence

B1: 27C3(S42A, S131T, M136I/N107G) (antibody, human IgG2, lambda, V domains shown)
VH: QVQLQESGPGLVKPSQTLSLTCTVSGASISSGGYNWAWIRQHPGKGLEWIGYIYYSGSTYYNPSLKSRVTISVDTSKNQFSLKLSSVTAADTAVYYCARERGYCSSTTCSRVIDVWGQGTTVTVSS
VL: SSELTQDPAVSVALGQTVRITCQGDSLRSYYASWYQQKPGQAPVLVIYGKNNRPSGIPDRFSGSSSGNTASLTITGAQAEDEADYYCGSRDNIGNHQVFGGGTKLTVLG
notes: IgG2 lambda; The mutations are already in the entries
B2: 27C3(S42A, S131T, V135I, M136I/N107G, I112V) (antibody, human IgG2, lambda, V domains shown)
VH: B1 VH with V112I
VL: B1 VL with I93V
notes: as for B1
B3: 27C3(S42A, S133T, M136I/N107G, I112V) (antibody, human IgG2, lambda, V domains shown)
VH: B1 VH with T108S, S110T
VL: B1 VL with I93V
notes: as for B1
B4: 27C3(S42A, S131T, M136I/I112V) (antibody, human IgG2, lambda, V domains shown)
VH: B1 VH
VL: B1 VL with G88N, I93V
notes: as for B1
B5: 27C3(S42A, S131T, V135I, M136I/I112V) (antibody, human IgG2, lambda, V domains shown)
VH: B1 VH with V112I
VL: B1 VL with G88N, I93V
notes: as for B1
B6: 27C3(S42A, S131T, V135I, M136I/N107G) (antibody, human IgG2, lambda, V domains shown)
VH: B1 VH with V112I
VL: B1 VL
notes: as for B1
B7: 27C3(S42A, S133T, M136I/I112V) (antibody, human IgG2, lambda, V domains shown)
VH: B1 VH with T108S, S110T
VL: B1 VL with G88N, I93V
notes: as for B1
B8: 27C3(S42A, S131T, M136I/N107G, I112V) (antibody, human IgG2, lambda, V domains shown)
VH: B1 VH
VL: B1 VL with I93V
notes: as for B1
B9: 27C3(S42A, S133T, M136I/N107G) (antibody, human IgG2, lambda, V domains shown)
VH: B1 VH with T108S, S110T
VL: B1 VL
notes: as for B1
B10: 27C3(S42A, M136I/N107G, I112V) (antibody, human IgG2, lambda, V domains shown)
VH: B1 VH with T108S
VL: B1 VL with I93V
notes: as for B1
B11: 18E5 (antibody, human IgG2, kappa, V domains shown)
VH: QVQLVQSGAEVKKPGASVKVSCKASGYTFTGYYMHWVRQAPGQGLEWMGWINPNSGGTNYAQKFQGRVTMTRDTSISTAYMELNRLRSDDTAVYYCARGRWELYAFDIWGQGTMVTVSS
VL: EIVLTQSPGTLSLSPGERATLSCRASQSVSGSYLTWYQQKPGQAPRLLIYGASSRATGIPDRFSGSGSGTDFTLTISRLEPEDFAMYYCQQYGGSPPFTFGPGTKVDIKR
B12: 27C3 (antibody, human IgG2, lambda, V domains shown)
VH: B1 VH with A37S, T108S, I113M
VL: B1 VL with G88N
notes: Incompletely N-glycosylated at Asn40 (AHo) of CDRH1
B13: 25B7 (antibody, V domains shown)
VH: EVQLLESGGGLVQPGGSLRLSCAASGFTFRSYAMNWVRQAPGKGLEWVSTISGSGGSTHYADSVKGRFTISRDNSKNTLYLQLSSLRAEDTAVYYCAKGIAAADYYYYYGMDVWGQGTTVTVSS
VL: SYEVTQPPSVSVSPGQTASITCSGDKLGDKNACWYQQRPGQSPVLVIYQNSKRPSGIPERFSGSNSGNTATLTISGTQAMDEADYYCQAWDSSTVFGGGTRLEVLG
notes: The heavy chain entry ends after CH1 with a tag remnant

One may read the Kd as the constant that tells how readily two partners part at equilibrium.

For the first experiment, the target named is T1, full-length wild type recombinant human …. Briefly: Binding Affinity (nM), Table 12; method not restated (BIAcore of Example 3 presumed). (SPR reads the build-up and loss of mass on a sensor chip optically.)
Regarding B1, the equilibrium dissociation constant (Kd) stood at 2.8 nM.

For B2, the Kd came to 34 nM.

For the molecule B3, the Kd amounted to 0.5 nM.

For B4, the Kd came to 3 nM.

For B5, the Kd was 3 nM.

With B6, the dissociation constant (Kd) worked out at 2.8 nM.

Turning to B7, the Kd came to 0.3 nM.

For the molecule B8, the Kd amounted to 1.3 nM.

As to B9, the Kd worked out at 0.4 nM.

On to B10, for which the Kd worked out at 1.2 nM.

For the next experiment, the target named is T2, full-length wild type recombinant …. The description is as above.
Consider B1, for which the Kd is 226 nM.

For B2, the equilibrium dissociation constant (Kd) worked out at 88 nM.

On to B3, for which the Kd was 8 nM.

Turning to B4, the Kd stood at 198 nM.

Regarding B5, the Kd is 198 nM.

In the case of B6, the Kd is 226 nM.

For the molecule B7, the dissociation constant Kd was 88 nM.

Regarding B8, the Kd worked out at 181 nM.

On to B9, for which the dissociation constant (Kd) stood at 62 nM.

Take B10: the Kd is 190 nM.

For another experiment, the target named is T1, full-length wild type recombinant human …. Put plainly: cell-based or functional assay.
Regarding B1, the Activity stood at 65%.

As to B2, the Activity came to 70%.

Take B3: the Activity came to 83%.

With B4, the Activity came to 65%.

On to B5, for which the Activity was found to be 69%.

With B6, the Activity was determined as 70%.

On to B7, for which the Activity amounted to 46%.

Turning to B8, the Activity stood at 89%.

As to B9, the Activity was found to be 73%.

Consider B10, for which the Activity came to 70%.

For the next experiment, the target named is T3, full-length wild type recombinant human …. Briefly: cell-based or functional assay.
On to B11, for which the “LCAT Activity (fold the vehicle control activity)” value stood at 2.5 fold.

The target of another experiment is T1, full-length wild type recombinant human …. Put plainly: Binding Affinity (nM), Table 10; method not restated (BIAcore of Example 3 presumed).
In the case of B12, the dissociation constant Kd is 1.15 nM.

The next experiment has as its target T2, full-length wild type recombinant …. Described as above.
Regarding B12, the Kd turned out to be 128 nM.

The target of another experiment is T1, full-length wild type recombinant human …. Put plainly: BIAcore 3000 SPR, antibody captured on goat anti-human IgG, LCAT as analyte, 1:1 fit.
Method: (§1) Biosensor analysis was conducted at 25° C. in a HBS-EP buffer system (10 mM HEPES pH 7.4, 150 mM NaCl, 3 mM EDTA, 0.005% Surfactant P20) using a Biacore 3000 optical biosensor equipped with a CMS sensor chip. All reagents were kept at 4° C. prior to injection.
(§2) Goat anti-human IgG (30 mg/mL) (abcam) was immobilized (10000 RU) over flow cells 1-4 via standard amine coupling and followed by ethanolamine blocking. Each antibody (150 ng/mL) was captured (−100 RU) on a separate flow cell and analyzed simultaneously in sets of three. Flow cell 1 was used as the reference flow cell.
(§3) The data were fit to a 1:1 binding model (global Rmax) via Scrubber2 software. In some cases the highest concentrations were omitted to provide a better fit to the 1:1 binding model.
For the molecule B11, the Kd came to 1.01 nM.

For B12, the Kd was determined as 1.15 nM.

B13: the Kd worked out at 2.24 nM.

In a further experiment the target is T2, full-length wild type recombinant …. Described as above.
Method: as §1, §2, §3
Consider B12, for which the Kd turned out to be 128 nM.

For the molecule B13, the Kd is 1.02 nM.

For the next experiment the target is unchanged. Put plainly: BIAcore 3000 SPR, antibody captured on goat anti-human IgG, LCAT as analyte; cyno LCAT.
Method: as §1, §2, §3
In the case of B13, the equilibrium dissociation constant (Kd) was 1.2 nM.

For a further experiment, the target named is T1, full-length wild type recombinant human …. Put plainly: cell-based or functional assay. The source holds these as a separate data set.
As for B12, the Activity turned out to be 100%.

Another experiment shares this target. Put plainly: cell-based or functional assay. This is another data set of the same source.
Regarding B12, the “EC50 (read off the curve)” value is approximately 4 mgAb/mL Plasma.
